Five molecules from patent US20230391845A1, “GLP-1, GIP AND GLUCAGON RECEPTOR TRIPLE AGONISTS” (priority 2020, published 2023) can be followed below.

Series [1] is described as follows: Pharmacokinetic study in minipigs, i.v. administration. The arrangement: species or system Göttingen minipigs. To be noted: female, Göttingen, minipig, in vivo, iv; minipigs, i.v. administration, harmonic mean; read-out: Terminal half-life t1/2 (converted). An outline of the steps: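 Female Göttingen minipigs (7-14 months, 16-35 kg), fasted ~18 h pre-dose to 4 h post-dose, received i.v. injections of usually 1.5-2 nmol/kg via central venous catheter. Plasma sampled up to 14 days, assayed by ELISA or LCMS; terminal half-life (harmonic mean) from non-compartmental analysis.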

A short description of series [2]: Maximal efficacy study in DIO mice, daily s.c. dose titration for up to 60 days (body weight, food intake). The series is classed as in vivo, C57BL/6J male mice. To be noted: for Absolute BW (grams) Day 0: Day 0 (baseline); for Absolute BW (grams) Day 0 / Absolute BW (grams) Last day of treatment / Change in BW (%) Last day of treatment: mean ± SEM; for Absolute BW (grams) Last day of treatment / Change in BW (%) Last day of treatment / Average food intake per mouse (grams/day): s.c. once daily; for Absolute BW (grams) Last day of treatment / Change in BW (%) Last day of treatment: dose titration of Table 4, last day of treatment; for Average food intake per mouse (grams/day): dose titration of Table 4, mean ± SEM, n = 1-2. The protocol: The purpose of this example is to assess the in vivo effect of selected triple agonists on pharmacodynamic parameters in diet-induced obese (DIO) mice. The animals were treated once daily via subcutaneous injection with a liquid formulation of the triple agonist to be tested to assess effects on body weight, foot intake, and glucose tolerance.
C57BL/6J male mice were purchased from Jackson Laboratories at approximately 8 weeks of age. Mice were group housed and fed a high-fat, high-sugar diet from Research Diets (D12331). Mice were maintained on this diet for 12 weeks prior to initializing the pharmacology studies. Mice exceeding a measured body weight of 50 grams were considered diet-induced obese (DIO) and included in pharmacology studies. Mice were exposed to a controlled 12 h:12 h light:dark cycle at ambient room temperature (22° C.) with ab libitum access to food and water. Studies were approved by and performed according to the guidelines of the Institutional Animal Care and Use Committee of the University of Cincinnati.
All compounds in the study were formulated in the following buffer: 50 mM phosphate; 70 mM sodium chloride; 0.05% Tween-80, pH 7.4. Dosing solutions were formulated in glass vials and stored at 2-8° C. Dosing solutions were brought to room temperature before dosing and returned to 2-8° C. after dosing.
DIO mice were distributed into groups (n=8 per group) such that statistical variations in the mean and standard deviations of fat mass and body weight were minimized between groups. The animals were grouped to receive treatment as follows: Vehicle or GLP-1/GIP/Gcg receptor triple agonists as described herein, where vehicle is 50 mM phosphate, 70 mM sodium chloride; 0.05% (v/v) Tween-80, pH 7.4. The test compounds were dissolved in the vehicle, to stock concentrations of […], then diluted 50- to 200-fold in the vehicle to achieve the desired dosing solution concentrations. Animals were dosed subcutaneously once daily in the morning for each day of treatment with dosing solution at a volume of 2-5 μL per gram of body weight as necessary to achieve the desired dose (e.g. 0.3 nmol/kg, 1.0 nmol/kg, or 3.0 nmol/kg).
Body weight (BW) and food intake were measured immediately prior to dosing each day. The percent change in body was calculated individually for each mouse based on initial body weight prior to the first injection.
In one study, DIO mice received a daily subcutaneous dose for up to 60 days of one of the following: vehicle, Compound No. 21, Compound No. 30, or Compound No. 33. The dose of each compound was up-titrated to maximal efficacy based on the titration schedule included in Table 4. Mice that achieved body weight normalization, defined as a body weight of 22.5 g or less, were voluntarily removed from the study. All triple agonist compounds tested resulted is substantially greater reductions of body weight and food intake than vehicle. […] This may be explained by the similar GLP-1R and GIPR in vitro potency but reduced in vitro GcgR potency of Compound No. 21 compared to Compound No. 30 and Compound No. 33 when investigated with the protocol described in Example 2 except using the mouse-specific receptors.

Series [3] concerns the target T1, human glucagon-like peptide 1 receptor (human, UniProt P43220 24-463). Description: cell-based or functional assay.
The target of series [4] is T2, human glucose-dependent insulinotropic polypeptide receptor (human, UniProt P48546 22-466).
T2 sequence (looked up): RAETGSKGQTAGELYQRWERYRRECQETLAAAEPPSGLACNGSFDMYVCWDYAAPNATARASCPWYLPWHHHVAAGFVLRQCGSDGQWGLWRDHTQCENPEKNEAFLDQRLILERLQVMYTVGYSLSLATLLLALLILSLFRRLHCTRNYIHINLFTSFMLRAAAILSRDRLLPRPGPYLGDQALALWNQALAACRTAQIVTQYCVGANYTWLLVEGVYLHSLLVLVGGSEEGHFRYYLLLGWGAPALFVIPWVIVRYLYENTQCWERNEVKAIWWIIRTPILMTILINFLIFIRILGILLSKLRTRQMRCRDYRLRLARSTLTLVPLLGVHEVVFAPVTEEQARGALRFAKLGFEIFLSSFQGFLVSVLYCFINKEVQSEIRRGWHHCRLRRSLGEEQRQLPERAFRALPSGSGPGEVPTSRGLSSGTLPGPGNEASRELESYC
Description: cell-based or functional assay.

The target in series [5] is T3, human glucagon receptor (human, UniProt P47871 26-477). The experiment in a line: cell-based or functional assay.
In series [6] the target is T1, human glucagon-like peptide 1 receptor. The experiment in a line: cell-based or functional assay. The source holds these as a separate data set.
In series [7] the target is T2, human glucose-dependent insulinotropic …. The experiment in a line: cell-based or functional assay. The source holds these as a separate data set.
The target of series [8] is T3, human glucagon receptor. Description: cell-based or functional assay. This is another data set of the same source.

Where two headings read alike, the source gives them in different places. *1 amine or outer side, *2 acyl side, *3 side chain or, on linkers, in order; H or OH if unused. Where a SMILES comes first, the peptide text is derived from it. Where no end group is shown, it is not given here. Side-chain parts run from the residue outwards. [ ]: non-standard residue; d: D form. The star is where a group is joined. C20 diacid = O=C(O)CCCCCCCCCCCCCCCCCCC(=O)*; γGlu = O=C(O)[C@H](CCC(=O)[*:2])N[*:1]; εLys = N[C@@H](CCCCN[*:1])C(=O)[*:2]; Aib = CC(C)(N)C(=O)O

T3 sequence (P47871 26-477): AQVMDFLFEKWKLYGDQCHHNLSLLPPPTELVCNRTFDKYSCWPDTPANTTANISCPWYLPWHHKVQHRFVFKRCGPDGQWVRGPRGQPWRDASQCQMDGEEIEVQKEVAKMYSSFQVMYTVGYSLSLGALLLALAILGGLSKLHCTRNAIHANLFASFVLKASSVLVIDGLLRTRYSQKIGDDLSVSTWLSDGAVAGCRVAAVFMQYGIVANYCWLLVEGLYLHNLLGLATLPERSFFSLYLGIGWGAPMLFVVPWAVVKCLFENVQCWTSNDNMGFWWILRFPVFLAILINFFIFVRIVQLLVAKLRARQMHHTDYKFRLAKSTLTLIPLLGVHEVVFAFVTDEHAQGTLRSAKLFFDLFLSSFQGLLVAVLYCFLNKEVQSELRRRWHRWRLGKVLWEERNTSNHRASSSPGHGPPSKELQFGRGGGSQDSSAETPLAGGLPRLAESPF

For `CC[C@H](C)[C@H](NC(=O)[C@H](CO)NC(=O)[C@H](Cc1ccc(O)cc1)NC(=O)[C@H](CC(=O)O)NC(=O)[C@H](CO)NC(=O)[C@@H](NC(=O)[C@H](Cc1ccccc1)NC(=O)[C@@H](NC(=O)CNC(=O)[C@H](Cc1c[nH]cn1)NC(=O)C(C)(C)NC(=O)[C@@H](N)Cc1c[nH]cn1)[C@@H](C)O)[C@@H](C)O)C(=O)N[C@@H](Cc1ccc(O)cc1)C(=O)N[C@@H](CC(C)C)C(=O)N[C@@H](CCC(=O)O)C(=O)N[C@@H](CCCCNC(=O)[C@@H](N)CCCCNC(=O)[C@@H](N)CCCCNC(=O)CC[C@H](NC(=O)CCCCCCCCCCCCCCCCCCC(=O)O)C(=O)O)C(=O)N[C@@H](CCCCN)C(=O)N[C@@H](Cc1ccc(O)cc1)C(=O)N[C@@H](C)C(=O)NC(C)(C)C(=O)N[C@@H](CCC(=O)O)C(=O)N[C@@H](Cc1ccccc1)C(=O)N[C@H](C(=O)N[C@@H](CCC(N)=O)C(=O)N[C@@H](Cc1c[nH]c2ccccc12)C(=O)N[C@@H](CC(C)C)C(=O)N[C@@H](CC(C)C)C(=O)N[C@@H](CCC(=O)O)C(=O)NCC(=O)NCC(=O)N1CCC[C@H]1C(=O)N[C@@H](CO)C(=O)N[C@@H](CO)C(=O)NCC(=O)N[C@@H](C)C(=O)N1CCC[C@H]1C(=O)N1CCC[C@H]1C(=O)N1CCC[C@H]1C(=O)N[C@@H](CO)C(N)=O)C(C)C` [Compound No. 30] (H-H[Aib]HGTFTSDYSIYLEK([εLys-εLys-γGlu-C20 diacid])KYA[Aib]EFVQWLLEGGPSSGAPPPS-NH2; N-terminus assumed), the half-life in series [1] is 78 h. In series [2], the “Absolute BW (grams) Day 0” value amounted to 56.2 ± 1.3 grams, the “Absolute BW (grams) Last day of treatment” value worked out at 22.2 ± 0.3 grams, the “Change in BW (%) Last day of treatment” value is −60.5 ± 0.4% and the “Average food intake per mouse (grams/day)” value came out at 1.39 ± 0.13 grams/day.
The matching figures for `CC[C@H](C)[C@H](NC(=O)[C@H](CO)NC(=O)[C@H](Cc1ccc(O)cc1)NC(=O)[C@H](CC(=O)O)NC(=O)[C@H](CO)NC(=O)[C@@H](NC(=O)[C@H](Cc1ccccc1)NC(=O)[C@@H](NC(=O)CNC(=O)[C@H](Cc1c[nH]cn1)NC(=O)C(C)(C)NC(=O)[C@@H](N)Cc1c[nH]cn1)[C@@H](C)O)[C@@H](C)O)C(=O)N[C@@H](Cc1ccc(O)cc1)C(=O)N[C@@H](CC(C)C)C(=O)N[C@@H](CCC(=O)O)C(=O)N[C@@H](CCCCNC(=O)[C@@H](N)CCCCNC(=O)[C@@H](N)CCCCNC(=O)CC[C@H](NC(=O)CCCCCCCCCCCCCCCCCCC(=O)O)C(=O)O)C(=O)N[C@@H](CCCCN)C(=O)N[C@@H](C)C(=O)N[C@@H](C)C(=O)NC(C)(C)C(=O)N[C@@H](CCC(=O)O)C(=O)N[C@@H](Cc1ccccc1)C(=O)N[C@H](C(=O)N[C@@H](CCC(N)=O)C(=O)N[C@@H](Cc1c[nH]c2ccccc12)C(=O)N[C@@H](CC(C)C)C(=O)N[C@@H](CC(C)C)C(=O)N[C@@H](CCC(=O)O)C(=O)NCC(=O)NCC(=O)N1CCC[C@H]1C(=O)N[C@@H](CO)C(=O)N[C@@H](CO)C(=O)NCC(=O)N[C@@H](C)C(=O)N1CCC[C@H]1C(=O)N1CCC[C@H]1C(=O)N1CCC[C@H]1C(=O)N[C@@H](CO)C(N)=O)C(C)C` [Compound No. 33] (H-H[Aib]HGTFTSDYSIYLEK([εLys-εLys-γGlu-C20 diacid])KAA[Aib]EFVQWLLEGGPSSGAPPPS-NH2): 47 h, 54.9 ± 2.6 grams, 24.8 ± 1.4 grams, −54.5 ± 3.5% and 1.38 ± 0.25 grams/day.

B1: Compound No. 3 (peptide)
peptide: Y[Aib]QGTFTSDYSIYLDKQAA[Aib]KFVNWLLAGGPSSGAPPPS-NH2
modifications: not fully specified (residue 21); printed as Y-Aib-QGTFTSDYSIYLDKQAA-Aib-K[2-[2-[2-[[2-[2-[2-[[(4S)-4-carboxy-4-(17-carboxyheptadecanoylamino)butanoyl]amino]ethoxy]ethoxy]acetyl]amino]ethoxy]ethoxy]acetyl]-FVNWLLAGGPSSGAPPPS-NH2
Regarding B1, the “hGLP-1R CRE Luc EC50 (pM)” value in series [3] and in series [6] was 5.4 pM in each case. Besides, the “hGIPR CRE Luc EC50 (pM)” value in series [4] and in series [7] was 27.5 pM each time. Moreover, the “hGcgR CRE Luc EC50 (pM)” value with human glucagon receptor [5] and with human glucagon receptor [8] was 34.7 pM in each case.

B2: Compound No. 1 (peptide)
peptide: Y[Aib]QGTFTSDYSIYLDKQAA[Aib]EFVNWLLAGGPSSGAPPPS-NH2
modifications: not fully specified (residue 16); printed as Y-Aib-QGTFTSDYSIYLD-K[2-[2-[2-[[2-[2-[2-[[(4S)-4-carboxy-4-(17-carboxyheptadecanoylamino)butanoyl]amino]ethoxy]ethoxy]acetyl]amino]ethoxy]ethoxy]acetyl]-QAA-Aib-EFVNWLLAGGPSSGAPPPS-NH2
Turning to B2, the “hGLP-1R CRE Luc EC50 (pM)” value in series [3] and in series [6] was 8.6 pM throughout. Also, the “hGIPR CRE Luc EC50 (pM)” value in series [4] and in series [7] was 23.7 pM each time. The “hGcgR CRE Luc EC50 (pM)” value with human glucagon receptor [5] and with human glucagon receptor [8] was 157 pM in each case.

B3: Compound No. 2 (peptide)
peptide: Y[Aib]QGTFTSDYSIYLDKKAA[Aib]EFVNWLLAGGPSSGAPPPS-NH2
modifications: not fully specified (residue 17); printed as Y-Aib-QGTFTSDYSIYLDK-K[2-[2-[2-[[2-[2-[2-[[(4S)-4-carboxy-4-(17-carboxyheptadecanoylamino)butanoyl]amino]ethoxy]ethoxy]acetyl]amino]ethoxy]ethoxy]acetyl]-AA-Aib-EFVNWLLAGGPSSGAPPPS-NH2
On to B3, for which the “hGLP-1R CRE Luc EC50 (pM)” value in series [3] and in series [6] was 7.1 pM each time. Also, the “hGIPR CRE Luc EC50 (pM)” value in series [4] and in series [7] was 49.8 pM throughout. Also, the “hGcgR CRE Luc EC50 (pM)” value in the series with human glucagon receptor [5] and in the series with human glucagon receptor [8] was 47.6 pM each time.
